Reference: patent US20240058466A1 (TAE LIFE SCIENCES, published 2024)

B1: Anti-EGFR Mab No. 3, L234A, L235A, L328C (antibody, human IgG1, L234A L235A)
heavy: QVQLQQSGAEVKKPGSSVKVSCKASGYTFTNYYIYWVRQAPGQGLEWIGGINPTSGGSNFNEKFKTRVTITADESSTTAYMELSSLRSEDTAFYFCTRQGLWFDSDGRGFDFWGQGTTVTVSSASTKGPSVFPLAPSSKSTSGGTAALGCLVKDYFPEPVTVSWNSGALTSGVHTFPAVLQSSGLYSLSSVVTVPSSSLGTQTYICNVNHKPSNTKVDKRVEPKSCDKTHTCPPCPAPEAAGGPSVFLFPPKPKDTLMISRTPEVTCVVVDVSHEDPEVKFNWYVDGVEVHNAKTKPREEQYNSTYRVVSVLTVLHQDWLNGKEYKCKVSNKACPAPIEKTISKAKGQPREPQVYTLPPSREEMTKNQVSLTCLVKGFYPSDIAVEWESNGQPENNYKTTPPVLDSDGSFFLYSKLTVDKSRWQQGNVFSCSVMHEALHNHYTQKSLSLSPGK
light: DIQMTQSPSSLSASVGDRVTITCRSSQNIVHSNGNTYLDWYQQTPGKAPKLLIYKVSNRFSGVPSRFSGSGSGTDFTFTISSLQPEDIATYYCFQYSHVPWTFGQGTKLQITREVAAPSVFIFPPSDEQLKSGTASVVCLLNNFYPREAKVQWKVDNALQSGNSQESVTEQDSKDSTYSLSSTLTLSKADYEKHKVYACEVTHQGLSSPVTKSFNRGEC
notes: Fc variant; also called Anti-EGFR Ab No. 3 L234A, L235A, L328C; triple mutant
B2: Anti-EGFR Mab No. 3, L328C (antibody, human IgG1)
heavy: not shown
light: B1 light
notes: Fc variant; also called Anti-EGFR Ab No. 3 L328C; single mutant

Target: T1, recombinant human FcRn (Sino Biological) (human, UniProt P55899 24-297; P61769 21-119)
T1 construct: the two chains are those of natural FcRn
T1 sequence (P55899 24-297 limits assumed, chain 1 of 2): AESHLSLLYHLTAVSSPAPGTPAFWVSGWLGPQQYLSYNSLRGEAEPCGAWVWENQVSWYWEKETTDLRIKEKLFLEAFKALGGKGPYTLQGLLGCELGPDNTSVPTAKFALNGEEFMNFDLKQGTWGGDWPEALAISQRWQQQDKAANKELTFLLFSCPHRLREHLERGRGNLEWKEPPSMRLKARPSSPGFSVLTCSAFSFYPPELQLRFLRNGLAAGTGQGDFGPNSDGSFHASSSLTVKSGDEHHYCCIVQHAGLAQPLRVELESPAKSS
T1 sequence (P61769 21-119 limits assumed, chain 2 of 2): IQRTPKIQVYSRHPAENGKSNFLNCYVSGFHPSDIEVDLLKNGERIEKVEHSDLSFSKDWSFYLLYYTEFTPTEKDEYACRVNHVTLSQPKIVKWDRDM
Test: ELISA at pH 6.0: plate coated with recombinant human FcRn, antibody titrated, goat anti-human Fc-HRP, OD650

Binder	binding result
B1	binds
B2	binds
